Experimental findings from patent US20190367592A1 (AC IMMUNE, published 2019) are described below.

The labels stand for the following.
B1: hu37D3-H9.v5.4 (antibody, V domains shown)
VH: EVQLVESGGGLVQPGGSLRLSCAASGLIFRSYGMSWVRQAPGKGLEWVATINSGGTYTYYPDSVKGRFTISRDNSKNTLYLQMNSLRAEDTAVYYCANSYSGAMDYWGQGTLVTVSS
VL: EDVLTQTPLSLPVTPGQPASISCRSSQSIVHSQGNTYFEWYLQKPGQSPQLLIYKVSNRFSGVPDRFSGSGSGTDFTLKISRVEAEDVGVYYCFQGSLVPWTFGQGTKVEIK
B2: hu37D3-H9.v31.13 (antibody, V domains shown)
VH: B1 VH
VL: B1 VL with E1D, Q33N, G34A, T36N
B3: hu37D3-H9.v30.6 (antibody, V domains shown)
VH: B1 VH
VL: B1 VL with E1D, Q33P
B4: hu37D3-H9.v31.10 (antibody, V domains shown)
VH: B1 VH
VL: B1 VL with E1D, Q33N, G34A, T36P
B5: hu37D3-H9.v31.11 (antibody, V domains shown)
VH: B1 VH
VL: B1 VL with E1D, Q33N, G34A, T36F
B6: hu37D3.v28.51 (antibody, V domains shown)
VH: B1 VH
VL: B1 VL with Q33H
B7: hu37D3-H9.v31.12 (antibody, V domains shown)
VH: B1 VH
VL: B1 VL with E1D, Q33N, G34A, T36Y
B8: hu37D3-H9.v5.5 (antibody, V domains shown)
VH: B1 VH
VL: B1 VL with Q33E
B9: hu37D3.v28.B3 (antibody, V domains shown)
VH: B1 VH
VL: B1 VL with E1D, Y37W
B10: hu37D3-H9.v30.8 (antibody, V domains shown)
VH: B1 VH
VL: B1 VL with E1D, Q33Y
B11: hu37D3.v28.E3 (antibody, V domains shown)
VH: B1 VH
VL: B1 VL with E1D, H31D, Q33D
B12: hu37D3.v28.B4 (antibody, V domains shown)
VH: B1 VH
VL: B1 VL with E1D, Y37H
B13: hu37D3-H9.v31.14 (antibody, V domains shown)
VH: B1 VH
VL: B1 VL with E1D, Q33N, G34A, T36R
B14: hu37D3-H9.v5.6 (antibody, V domains shown)
VH: B1 VH
VL: B1 VL with Q33A
B15: hu37D3-H9.v31.1 (antibody, V domains shown)
VH: B1 VH
VL: B1 VL with E1D, Q33N, G34A, N35G
B16: hu37D3.v28.B8 (antibody, V domains shown)
VH: B1 VH
VL: B1 VL with E1D, Q33E, Y37R
B17: hu37D3.v28.B7 (antibody, V domains shown)
VH: B1 VH
VL: B1 VL with E1D, Q33D, Y37K
B18: hu37D3-H9.v30.7 (antibody, V domains shown)
VH: B1 VH
VL: B1 VL with E1D, Q33F
B19: hu37D3-H9.v30.9 (antibody, V domains shown)
VH: B1 VH
VL: B1 VL with E1D, Q33H
B20: hu37D3-H9.v31.4 (antibody, V domains shown)
VH: B1 VH
VL: B1 VL with E1D, Q33N, G34A, N35P
B21: hu94B2 HC7 + LC13 (antibody, V domains shown)
VH: EVQLVQSGAEVKKPGASVKVSCKASGYSLTGYTMNWVRQAPGQGLEWIGLISPYNGVTSYNQKFKGRVTITRDKSTSTAYLELSSLRSEDTAVYYCARQGAYWGQGTLVTVSS
VL: DIVMTQTPLSLPVTPGQPASISCKSSQSLLDSDGKTYLNWLLQKPGQSPQRLIYLVSKLDSGVPDRFSGSGSGTDFTLKISRVEAEDVGVYYCWQGTHFPWTFGQGTKVEIK
B22: hu94B2 HC8 + LC13 (antibody, V domains shown)
VH: B21 VH with R72V, K74T
VL: B21 VL
B23: hu94B2 HC8 + LC11 (antibody, V domains shown)
VH: B21 VH with R72V, K74T
VL: B21 VL with I2V, L41Y
B24: hu94B2 HC8 + LC15 (antibody, V domains shown)
VH: B21 VH with R72V, K74T
VL: B21 VL with L41Y
B25: hu94B2 HC8 + LC9 (antibody, V domains shown)
VH: B21 VH with R72V, K74T
VL: B21 VL with I2V

Positions count from the first letter of the chain named.

T1 sequence (P10636 other isoform, or with tags, fused parts or gaps limits assumed): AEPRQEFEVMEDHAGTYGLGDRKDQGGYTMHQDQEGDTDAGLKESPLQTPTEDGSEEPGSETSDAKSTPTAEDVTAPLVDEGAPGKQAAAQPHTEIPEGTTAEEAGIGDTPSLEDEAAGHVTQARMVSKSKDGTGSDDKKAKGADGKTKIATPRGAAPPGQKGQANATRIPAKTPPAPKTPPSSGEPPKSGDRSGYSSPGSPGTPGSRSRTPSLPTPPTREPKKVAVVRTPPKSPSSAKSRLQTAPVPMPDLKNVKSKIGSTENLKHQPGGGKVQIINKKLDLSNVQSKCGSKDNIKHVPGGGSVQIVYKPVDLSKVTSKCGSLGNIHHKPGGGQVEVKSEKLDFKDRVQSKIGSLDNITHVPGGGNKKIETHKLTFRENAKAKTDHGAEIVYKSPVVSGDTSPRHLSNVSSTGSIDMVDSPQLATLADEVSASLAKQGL

The first assay has as its target T1, recombinant human Tau monomer, 2N4R isoform (amino acids 2-441) (human, UniProt P10636-8 2-441).
T1 construct: range 2-441; N-terminal His-tag removed with TEV protease; also called monomeric Tau
In words: SPR; Normalized Rmax post-stress (2 weeks 40 C) / pre-stress. The procedure, abridged:
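IgGs captured on anti-human IgG CM5 chip at 2 μg/ml; Tau monomer analyte at 0, 26.5 and 265 nM, 25° C., 180 s association, 300 s dissociation, in HBSP pH 7.4; KD from 1:1 fit. Stress: 0.1 mg/ml antibody held 2 weeks at 40° C versus ~4° C; Rmax normalized to capture level, post/pre ratio.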
On the technique in general: Surface plasmon resonance follows binding to a sensor surface in real time, without labels.
As for B1, the “Stability Index” value is 78%.

In the case of B2, the “Stability Index” value amounted to 83%.

On to B3, for which the “Stability Index” value came out at 270%.

On to B4, for which the “Stability Index” value came out at 261%.

On to B5, for which the “Stability Index” value is 126%.

As for B6, the “Stability Index” value turned out to be 74%.

Take B7: the “Stability Index” value worked out at 99%.

For the molecule B8, the “Stability Index” value amounted to 75%.

For the molecule B9, the “Stability Index” value is 208%.

As to B10, the “Stability Index” value was found to be 105%.

In the case of B11, the “Stability Index” value was 364%.

For B12, the “Stability Index” value is 288%.

Consider B13, for which the “Stability Index” value is 86%.

For B14, the “Stability Index” value was found to be 67%.

Take B15: the “Stability Index” value is 72%.

Take B16: the “Stability Index” value was 456%.

For the molecule B17, the “Stability Index” value worked out at 607%.

With B18, the “Stability Index” value came to 93%.

With B19, the “Stability Index” value stood at 63%.

In the case of B20, the “Stability Index” value worked out at 533%.

The target of a further assay is T1, recombinant human Tau monomer, 2N4R …. In words: SPR, captured IgG, Tau monomer analyte, 1:1 model; fit-quality column: -. The procedure:
Briefly, IgGs in 1 mL culuture were captured using tip columns that were custom packed with 20 μL MabSelect SuRe resin (Glygen Corp & GE Healthcare). After washing with 1×PBS pH 7.4, IgGs were eluted into 160 μL of 50 mM phosphoric acid pH 3 and neutralized with 12 μL of 20×PBS pH 11. MabSelect SuRe tip columns were stripped in 0.1 M NaOH and regenerated with 1×PBS pH 7.4 for consecutive use of up to 15 times. Purified antibodies in 96-well format were normalized to 0.1 mg/ml using a Hamilton Star liquid handling robot. The “pre-stress” samples were kept at approximately 4° C. and the “post-stress” samples were incubated at 40° C. for two weeks in a PCR machine. Functional stability of the variants was compared by running surface plasmon resonance kinetics experiments with the “pre-stress” and “post-stress” antibody preps. The antibodies were assessed using a human antibody capture CM5 Series S chip generated using the GE Biacore human IgG capture kit and a Biacore T200 instrument. Antibodies diluted to 2 μg/ml were immobilized using a 15 second injection time and 10 μl/min flow rate. Binding to Tau monomer at 0 nM, 26.5 nM and 265 nM, at 25° C., using a flow rate of 40 μl/min, was monitored for a 180 second association phase followed by a 300 second dissociation phase. Samples were run in 10 mM HEPES pH7.4, 150 mM NaCl, 0.05% Tween 20 (HBSP) using a multi-cycle kinetics format. Data was analyzed using BIAevaluation software, fitting a 1:1 binding model. The resulting affinity (KD) values are shown in FIG. 8A-D. A Stability Index was also calculated, using the rationale that affinity-compromised antibodies (due for example to deamidation of key residues) are expected to contribute equally to the IgG capture level (“Ligand Level”) but to contribute less to the measured Tau binding, and that this would be reflected in the experimentally derived value for Rmax. To account for variations in the amount of each antibody captured, Rmax was normalized for the antibody capture level (as measured by “Ligand Level”, Response Units immobilized during antibody capture). Thus Normalized Rmax is calculated as the experimental Rmax (units=RU) divided by the “Ligand Level” (Evaluation output representing the RU captured during the hIgG capture step, units=RU), and Stability Index is calculated here as Normalized Rmax (post-stress) divided by Normalized Rmax (pre-stress).
As a reminder, the Kd is a measure of binding affinity in units of concentration. With B1, the Kd stood at 36.1 nM.

On to B2, for which the dissociation constant Kd was 48.1 nM.

For B3, the Kd was 19.1 nM.

Regarding B4, the Kd stood at 5.5 nM.

Regarding B5, the Kd came to 22.7 nM.

Regarding B6, the Kd is 35.6 nM.

With B7, the Kd is 41.6 nM.

On to B8, for which the Kd was 64.5 nM.

Take B9: the Kd is 0.4 nM.

As for B10, the Kd stood at 31.4 nM.

Take B11: the Kd came to 1.1 nM.

With B12, the Kd is 10.5 nM.

Consider B13, for which the Kd amounted to 35.5 nM.

As for B14, the Kd was 36.6 nM.

With B15, the Kd amounted to 41.2 nM.

B16: the Kd turned out to be 1.8 nM.

B17: the Kd is 4.1 nM.

With B18, the Kd came out at 34.9 nM.

As to B19, the Kd stood at 36.4 nM.

As for B20, the Kd is 0.8 nM.

A further assay shares this target. In words: SPR screen, hIgG captured, Tau monomer analyte. The source says: Antibody 125B11-H3 was humanized onto VH3 and Vκ1 consensus frameworks. The heavy chain graft included murine residues at position 78 (Kabat numbering system). The Vκ1 graft included murine residues in framework positions 43 and 87. The light chain of 113F5-F7 was also humanized onto the Vκ1 framework, with additional murine residues at framework positions 43 and 87. Humanized variant heavy chains (125B11) and light chains (125B11 and 113F5-F7) were co-transfected in multiple combinations and purified in 96-well format as described above. Humanized variants were then screened for affinity for human Tau monomer using the Biacore human IgG capture kit, a Series S CM5 chip and a Biacore T200 instrument. Antibodies were diluted to 2 μg/ml and captured for 15 seconds at 10 μl/min. Association and dissociation of 0, 100 and 500 nM human Tau monomer in HBSP was monitored for 180s and 300s respectively at a flow rate of 40 μl/min. A 1:1 binding model was applied to the results (Table 9).
Variants hu125B11.v17 (HC3+LC1), hu125B11.v26 (HC4+LC2) and hu125B 11.v28 (HC4+LC4) were selected for high-resolution kinetic analysis based on the affinity screen (Table 10). Antibody 94B2-C1 was humanized onto VH1 and Vx2 frameworks. The heavy chain graft also included murine residues at position 28, 29, 67, 69, 71, and 73 (Kabat numbering system). The Vκ2 graft also included murine residues in framework positions 2, 36, and 46. […] Variant hu94B2.v105 (heavy chain variant 94B2.HCl, light chain variant 94B2.LC13) was selected for detailed SPR characterization (Table 11).
Regarding B21, the Kd amounted to 57.8 nM.

As to B22, the Kd was found to be 2.4 nM.

As to B23, the Kd worked out at 44.3 nM.

Turning to B24, the Kd turned out to be 51.5 nM.

B25: the Kd turned out to be 1 nM.
